The record followed here is US20250361322A1 (ICONIC THERAPEUTICS, published 2025).

The target in test [1] is T1, E. coli-derived TF (human (Example 17 does not restate the …, UniProt P13726 33-251)).
T1 construct: also called E. coli-derived TF-His; E. coli-derived TF protein
Nature of the test: protein ELISA, plate coated with E. coli-derived TF-His, antibody titrated, HRP secondary, luminescence. In general terms: In an ELISA, binding on a coated surface is turned into a signal by an enzyme label.
Experimental: (§1) Plates coated with Expi293- or E. coli-derived TF-His were incubated with increasing concentrations of antibodies.

Test [2] has as its target T2, Expi293-derived TF-His (human (Example 17 does not restate the …, UniProt P13726 33-251)).
T2 construct: Glycosylated TF ECD-His6 from Expi293 cells; also called Expi293-derived TF protein; TF ECD-His6
The test is described as follows: protein ELISA, plate coated with Expi293-derived TF-His, antibody titrated, HRP secondary, luminescence.
Experimental: as §1

Test [3] has as its target T3, Macaca mulatta TF on RF/6A cells (Macaca mulatta (protein sequence stated …, UniProt P13726 33-294 (human entry))).
T3 construct: Endogenous TF of the RF/6A cell line; also called TF-positive Macaca mulatta RF/6A cells; cynomolgus TF
T3 chain: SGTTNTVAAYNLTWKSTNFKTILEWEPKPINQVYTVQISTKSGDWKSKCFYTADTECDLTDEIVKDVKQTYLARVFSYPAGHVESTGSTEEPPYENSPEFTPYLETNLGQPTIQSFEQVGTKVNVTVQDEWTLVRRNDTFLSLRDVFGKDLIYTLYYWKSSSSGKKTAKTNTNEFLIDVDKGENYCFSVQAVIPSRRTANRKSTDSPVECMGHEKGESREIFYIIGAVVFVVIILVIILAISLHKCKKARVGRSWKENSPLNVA
Nature of the test: flow cytometry, IgG1 titrated on TF-positive Macaca mulatta RF/6A cells, 4-parameter fit. (In general: Flow cytometry measures light scatter and fluorescence of single cells or particles in a stream.)
Experimental: (§2) After 2 washes, dead cells were labeled with TO-PRO-3 Iodide (ThermoFisher Scientific) and samples were analyzed on a CytoFLEX flow cytometer (Beckman Coulter, Brea, CA, USA) or Novocyte flow cytometer (ACEA Biosciences, San Diego, CA, USA). The median fluorescence intensities (MFIs) at each dilution were plotted and cell EC₅₀'s were derived using a 4-parameter binding model in Prism (GraphPad, La Jolla, CA, USA).

In test [4] the target is T4, Relipidated TF (UniProt P13726 33-295, limits assumed). The test is described as follows: cell-based or functional assay.
The target in test [5] is T4, Relipidated TF. Nature of the test: cell-based or functional assay. This is another data set of the same source.
Test [6] has as its target T5, mouse TF ECD-His6 (mouse, UniProt P20352 29-251).
T5 construct: Expi293-derived; also called TF-His; mTF
Nature of the test: BLI (ForteBio Octet). On the technique in general: BLI is a label-free optical method that tracks binding on a fibre tip over time.
Experimental: (§3) Kinetic measurements for the anti-TF antibodies were conducted on an Octet QK384 (Pall ForteBio, Fremont, CA, USA) or a Biacore (GE Healthcare Bio-Sciences).
(§4) Briefly, ForteBio affinity measurements were performed by loading IgGs on-line onto AHC sensors. Sensors were equilibrated off-line in assay buffer for 30 min and then monitored on-line for 60 seconds for baseline establishment. Sensors with loaded IgGs were exposed to 100 nM antigen (human, cynomolgus, or mouse TF) for 3 min, afterwards they were transferred to assay buffer for 3 min for off-rate measurement. Alternatively, binding measurements were obtained by loading biotinylated TF monomer on SA sensors followed by exposure to 100 nM antibody Fab in solution. Kinetic data was analyzed and fitted using a 1:1 Langmuir binding model and the KD was calculated by dividing the koff by the kₒₙ.

The target of test [7] is T6, human TF ECD-His6 (human, UniProt P13726 33-251).
T6 construct: Expi293-derived; Biacore used TF-His; also called TF-His; hTF
The test is described as follows: BLI (ForteBio Octet).
Experimental: as §3, §4

Test [8] addresses T7, cynomolgus monkey TF ECD-His6 (cynomolgus monkey (Macaca fascicularis)).
T7 construct: Expi293-derived; also called TF-His; cTF
T7 chain: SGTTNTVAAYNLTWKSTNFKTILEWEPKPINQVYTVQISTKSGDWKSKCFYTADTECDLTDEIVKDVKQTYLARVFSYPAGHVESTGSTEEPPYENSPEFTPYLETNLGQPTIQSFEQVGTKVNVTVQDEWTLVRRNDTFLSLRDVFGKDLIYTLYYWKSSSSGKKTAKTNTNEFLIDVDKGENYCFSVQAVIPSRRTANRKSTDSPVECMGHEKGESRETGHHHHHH
Nature of the test: BLI (ForteBio Octet).
Experimental: as §3, §4

In test [9] the target is T6, human TF ECD-His6. The test is described as follows: SPR (Biacore), TF-His over coupled antibody.
Experimental: as §3
(§5) For the Biacore-based measurements, the antibody was covalently coupled to a CM5 or C1 chip using an amine-coupling kit (GE Healthcare Bio-Sciences). Association between the anti-TF antibodies and a five-point three-fold titration of TF-His starting at 25 to 500 nM was measured for 300 sec. Subsequently, dissociation between the anti-TF antibody and TF-His was measured for up to 1800 sec. Kinetic data was analyzed and fitted globally using a 1:1 binding model.
Test [10] has as its target T7, cynomolgus monkey TF ECD-His6. Nature of the test: SPR (Biacore), TF-His over coupled antibody.
Experimental: as §3, §5
For test [11], the target named is T8, human Tissue Factor on human TF-positive cells (human, UniProt P13726 33-295).
T8 construct: also called hTF; CD142
Nature of the test: flow cytometry, antibody titration on HCT-116 cells (endogenous human TF), 4-parameter fit of MFI.
Experimental: as §2

The target in test [12] is T9, human Tissue Factor (TF) (human, UniProt P13726 33-295).
T9 construct: also called hTF; CD142
The test is described as follows: flow cytometry, MDA-MB-231 cells; competitor 20 nM FVII-Fc-Alexa488; antibody at 83 nM.
Experimental: (§6) After another 1 hr incubation on ice, cells were washed, stained with a viability dye, and analyzed by flow cytometry. The Alexa488 fluorescence data from viable cells was summarized using median fluorescence intensity.

Test [13] concerns the target T9, human Tissue Factor (TF). Nature of the test: flow cytometry, MDA-MB-231 cells; competitor 20 nM FVII-Fc-Alexa488; antibody at 9.25 nM.
Experimental: as §6
Test [14] addresses T9, human Tissue Factor (TF). Nature of the test: flow cytometry, MDA-MB-231 cells; competitor 20 nM FVII-Fc-Alexa488; antibody at 28 nM.
Experimental: as §6
For test [15], the target named is T9, human Tissue Factor (TF). The test is described as follows: cell-based or functional assay.
In test [16] the target is T9, human Tissue Factor (TF). Nature of the test: cell-based or functional assay. This is another data set of the same source.
Test [17] deals with T9, human Tissue Factor (TF). Nature of the test: cell-based or functional assay. The source holds these as a separate data set.
For test [18], the target named is T9, human Tissue Factor (TF). Nature of the test: flow cytometry, A431 cells; antibody at 100 nM; competitor 20 nM 25A-Alexa488.
Experimental: as §6
In test [19] the target is T9, human Tissue Factor (TF). The test is described as follows: flow cytometry, A431 cells; antibody at 100 nM; competitor 20 nM 43Ea-Alexa488.
Experimental: as §6
Test [20] deals with T9, human Tissue Factor (TF). The test is described as follows: flow cytometry, MDA-MB-231 cells; competitor 20 nM FVII-Fc-Alexa488; antibody at 250 nM.
Experimental: as §6

Numbering of substitutions follows the chain as printed.

B1: 54E (antibody, human IgG1, V domains shown)
VH: QVQLVQSGAEVKKPGASVKVSCKASGYTFANYYMHWVRQAPGQGLEWMGIINPSGGITVYAQKFQGRVTMTRDTSTSTVYMELSSLRSEDTAVYYCARGGSKVAALAFDIWGQGTMVTVSS
VL: DIQMTQSPSSLSASVGDRVTITCQASQDISNSLNWYQQKPGKAPKLLIYDASNLETGVPSRFSGSRSGTDFTFTISSLQPEDIATYYCQQYNFHPLTFGGGTKVEIK
notes: Human IgG1; also called antibody designated 54E
As to B1, the EC50 in [1] was found to be 0.38 nM; in test [2], 0.96 nM; in test [3], 1.28 nM.

B2: 39A (antibody, human IgG1, V domains shown)
VH: QVQLVQSGAEVKKPGSSVKVSCKASGGTFSSNAIGWVRQAPGQGLEWMGSIIPIIGFANYAQKFQGRVTITADESTSTAYMELSSLRSEDTAVYYCARDSGYYYGASSFGMDVWGQGTTVTVSS
VL: EIVMTQSPATLSVSPGERATLSCRASQSVSSNLAWYQQKPGQAPRLLIYGASTRATGIPARFSGSGSGTEFTLTISSLQSEDFAVYYCEQYNNLPLTFGGGTKVEIK
notes: Human IgG1; also called antibody designated 39A
Turning to B2, in [4], the “% ETP at 10 nM Ab (TGA without antibody pre-incubation)” value turned out to be 58%, the “% Peak IIa at 10 nM Ab (TGA without antibody pre-incubation)” value worked out at 24%, the “% Peak IIa at 50 nM Ab (TGA without antibody pre-incubation)” value worked out at 8% and the “% Peak IIa at 100 nM Ab (TGA without antibody pre-incubation)” value amounted to 6%. Besides, in test [4], the “ETP at 10 nM Ab (TGA without antibody pre-incubation)” value was determined as 1330 nM·min, the “Lag Time at 10 nM Ab (TGA without antibody pre-incubation)” value stood at 12.4 min, the “Lag Time at 50 nM Ab (TGA without antibody pre-incubation)” value amounted to 33.1 min and the “Lag Time at 100 nM Ab (TGA without antibody pre-incubation)” value was found to be 38.1 min. Moreover, in [4], the “Peak IIa at 10 nM Ab (TGA without antibody pre-incubation)” value is 84 nM, the “Peak IIa at 50 nM Ab (TGA without antibody pre-incubation)” value came out at 29 nM, the “Peak IIa at 100 nM Ab (TGA without antibody pre-incubation)” value came to 22 nM and the “ttPeak at 10 nM Ab (TGA without antibody pre-incubation)” value was 20.7 min. Besides, in test [4], the “ttPeak at 50 nM Ab (TGA without antibody pre-incubation)” value stood at 43.2 min and the “ttPeak at 100 nM Ab (TGA without antibody pre-incubation)” value stood at 48.3 min. The EC50 in test [1] is 0.34 nM. In [5], the “% Peak IIa at 10 nM Ab (TGA with 10 min antibody pre-incubation)” value amounted to 11%, the “% Peak IIa at 50 nM Ab (TGA with 10 min antibody pre-incubation)” value was 8%, the “% Peak IIa at 100 nM Ab (TGA with 10 min antibody pre-incubation)” value came out at 6% and the “Lag Time at 10 nM Ab (TGA with 10 min antibody pre-incubation)” value is 20.9 min. For the same molecule, in [5], the “Lag Time at 50 nM Ab (TGA with 10 min antibody pre-incubation)” value was determined as 29 min, the “Lag Time at 100 nM Ab (TGA with 10 min antibody pre-incubation)” value is 32.1 min, the “Peak IIa at 10 nM Ab (TGA with 10 min antibody pre-incubation)” value was 30 nM and the “Peak IIa at 50 nM Ab (TGA with 10 min antibody pre-incubation)” value is 21 nM. In addition, in test [5], the “Peak IIa at 100 nM Ab (TGA with 10 min antibody pre-incubation)” value amounted to 17 nM, the “ttPeak at 10 nM Ab (TGA with 10 min antibody pre-incubation)” value was 30.8 min, the “ttPeak at 50 nM Ab (TGA with 10 min antibody pre-incubation)” value was 39.7 min and the “ttPeak at 100 nM Ab (TGA with 10 min antibody pre-incubation)” value stood at 43.2 min. In test [2], this molecule registered an EC50 of 0.45 nM. The molecule further showed an EC50 in test [3] of 0.27 nM.

B3: 43B (antibody, human IgG1, V domains shown)
VH: QVQLQESGPGLVKPSQTLSLTCTVSGGSISSGQYWSWIRQHPGKGLEWIGEIYYSGSTRYNPSLKSRVTISVDTSKNQFSLKLSSVTAADTAVYYCARDAPYYYGGGYYYYMDVWGKGTTVTVSS
VL: EIVLTQSPGTLSLSPGERATLSCRASQSVSSSYLAWYQQKPGQAPRLLIYGASSRATGIPDRFSGSGSGTDFTLTISRLEPEDFAVYYCQQVGVVPYTFGGGTKVEIK
notes: Human IgG1; also called antibody designated 43B
B3: the Kd in test [6] was 161 nM; in test [7], 2.4 nM; in test [8], 3.4 nM; in [9] it was 1.75 nM; in [10], 5.64 nM. The same molecule gave an EC50 in test [11] of 0.559 nM.

B4: 25A (antibody, human IgG1, V domains shown)
VH: QVQLVQSGAEVKKPGASVKVSCKASGYTFDVYGISWVRQAPGQGLEWMGWIAPYNGNTNYAQKLQGRVTMTTDTSTSTAYMELRSLRSDDTAVYYCARDAGTYSPFGYGMDVWGQGTTVTVSS
VL: DIQMTQSPSTLSASVGDRVTITCRASQSISSWLAWYQQKPGKAPKLLIYKASSLESGVPSRFSGSGSGTEFTLTISSLQPDDFATYYCQQFQSLPPFTFGGGTKVEIK
notes: Human IgG1; also called antibody designated 25A
As to B4, the EC50 in test [1] came out at 0.35 nM; in [2], 0.54 nM; in test [3], 0.43 nM.

B5: 25G1 (antibody, human IgG1, V domains shown)
VH: B4 VH with D30R, V31S, I51V, N55S, F106Y
VL: B4 VL with Q27H, S30D, S53Y, Q90L
notes: Human IgG1; also called antibody designated 25G1
With B5, the EC50 in test [1] was determined as 0.31 nM; in test [2] it was 0.42 nM; in test [3] it was 0.27 nM.

B6: 25A3 (antibody, human IgG1, V domains shown)
VH: B4 VH with N55S
VL: B4 VL with R24Q, S30N, S31N, S52Y, S53N, Q90L
notes: Human IgG1; also called antibody designated 25A3
As to B6, the EC50 stood at 0.36 nM in [1], 0.47 nM in [2] and 0.27 nM in test [3].

B7: 29E (antibody, human IgG1, V domains shown)
VH: QVQLVESGGGVVQPGRSLRLSCAASGFTFRSYGMHWVRQAPGKGLEWVAVITYDGINKYYADSVEGRFTISRDNSKNTLYLQMNSLRAEDTAVYYCARDGVYYGVYDYWGQGTLVTVSS
VL: not shown
notes: Human IgG1; also called antibody designated 29E
On to B7, for which the “% FVIIa” value in test [12] is 2%. In addition, in test [13], the “% FVIIa” value was determined as 5%. Also, in [14], the “% FVIIa” value worked out at 3%. In [15], the “% GM-CSF at 2.56 nM antibody” value came out at 33%, the “% GM-CSF at 6.4 nM antibody” value was 9%, the “% GM-CSF at 16 nM antibody” value turned out to be 5% and the “% GM-CSF at 40 nM antibody” value turned out to be 6%. Besides, in [15], the “% GM-CSF at 100 nM antibody” value amounted to 6%. In [16], the “% FXa at 12.5 nM antibody” value was determined as 81%, the “% FXa at 25 nM antibody” value stood at 68%, the “% FXa at 50 nM antibody” value worked out at 63% and the “% FXa at 100 nM antibody” value was found to be 66%. In test [17], the “% IL8 at 2.56 nM antibody” value is 33%, the “% IL8 at 6.4 nM antibody” value came to 5%, the “% IL8 at 16 nM antibody” value stood at 2% and the “% IL8 at 40 nM antibody” value stood at 2%. The “% IL8 at 100 nM antibody” value in test [17] was found to be 2%. Further, the “% 25A binding” value in [18] worked out at 96%. Moreover, the “% 43Ea binding” value in [19] came out at 85%. Besides, the “% FVIIa” value in test [20] came to 2%.

B8: 29E (antibody, human IgG1, V domains shown)
VH: B7 VH
VL: not shown
notes: as for B7
Take B8: the EC50 in [1] is 0.68 nM; in test [2] it was 0.98 nM; in [3] it was 0.53 nM.

As a reminder, the EC50 is the concentration giving half of the maximal effect. In general, Kd refers to the constant that tells how readily two partners part at equilibrium.
